Measured values reported in IntAct's records for PubMed 31515488.

B1: G1/S-specific cyclin-D3 (Homo sapiens), P30281 (parent)
chain: MELLCCEGTRHAPRAGPDPRLLGDQRVLQSLLRLEERYVPRASYFQCVQREIKPHMRKMLAYWMLEVCEEQRCEEEVFPLAMNYLDRYLSCVPTRKAQLQLLGAVCMLLASKLRETTPLTIEKLCIYTDHAVSPRQLRDWEVLVLGKLKWDLAAVIAHDFLAFILHRLSLPRDRQALVKKHAQTFLALCATDYTFAMYPPSMIATGSIGAAVQGLGACSMSGDELTELLAGITGTEVDCLRACQEQIEAALRESLREASQTSSSPAPKAPRGSSSQGPSQTSTPTDVTAIHL
partner: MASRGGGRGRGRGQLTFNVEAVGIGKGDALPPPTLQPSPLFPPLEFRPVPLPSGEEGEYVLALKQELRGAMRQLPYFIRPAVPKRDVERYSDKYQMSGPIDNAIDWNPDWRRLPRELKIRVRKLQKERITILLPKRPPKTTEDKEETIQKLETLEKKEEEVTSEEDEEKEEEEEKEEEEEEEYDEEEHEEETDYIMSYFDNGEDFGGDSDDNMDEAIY
B2: Protein FAM9B (Homo sapiens), Q8IZU0 (parent)
chain: MAAWGKKHAGKDPVRDECEERNRFTETREEDVTDEHGEREPFAETDEHTGANTKKPEDTAEDLTAKRKRMKMDKTCSKTKNKSKHALRKKQLKRQKRDYIHSLKLLNVLEEYITDEQKEEEEEEGEEEELIRIFQEQQKKWQQYRSVRRERLKEMKLLRDQFVKALEDFEDLCDRVFSDEDSELDN
partner: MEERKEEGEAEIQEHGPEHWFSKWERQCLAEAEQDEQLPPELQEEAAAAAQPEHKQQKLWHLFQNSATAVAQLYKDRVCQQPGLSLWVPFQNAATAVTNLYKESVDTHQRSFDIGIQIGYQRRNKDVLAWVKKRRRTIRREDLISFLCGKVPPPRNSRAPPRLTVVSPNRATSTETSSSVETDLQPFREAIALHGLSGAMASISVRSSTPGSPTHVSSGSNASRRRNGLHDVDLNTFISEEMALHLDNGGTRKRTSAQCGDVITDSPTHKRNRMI
B3: Double-strand-break repair protein rad21 homolog (Homo sapiens), O60216 (parent)
chain: MFYAHFVLSKRGPLAKIWLAAHWDKKLTKAHVFECNLESSVESIISPKVKMALRTSGHLLLGVVRIYHRKAKYLLADCNEAFIKIKMAFRPGVVDLPEENREAAYNAITLPEEFHDFDQPLPDLDDIDVAQQFSLNQSRVEEITMREEVGNISILQENDFGDFGMDDREIMREGSAFEDDDMLVSTTTSNLLLESEQSTSNLNEKINHLEYEDQYKDDNFGEGNDGGILDDKLISNNDGGIFDDPPALSEAGVMLPEQPAHDDMDEDDNVSMGGPDSPDSVDPVEPMPTMTDQTTLVPNEEEAFALEPIDITVKETKAKRKRKLIVDSVKELDSKTIRAQLSDYSDIVTTLDLAPPTKKLMMWKETGGVEKLFSLPAQPLWNNRLLKLFTRCLTPLVPEDLRKRRKGGEADNLDEFLKEFENPEVPREDQQQQHQQRDVIDEPIIEEPSRLQESVMEASRTNIDESAMPPPPPQGVKRKAGQIDPEPVMPPQQVEQMEIPPVELPPEEPPNICQLIPELELLPEKEKEKEKEKEDDEEEEDEDASGGDQDQEERRWNKRTQQMLHGLQRALAKTGAESISLLELCRNTNRKQAAAKFYSFLVLKKQQAIELTQEEPYSDIIATPGPRFHII
B4: Syntenin-2 (Homo sapiens), Q9H190 (parent)
chain: MSSLYPSLEDLKVDQAIQAQVRASPKMPALPVQATAISPPPVLYPNLAELENYMGLSLSSQEVQESLLQIPEGDSTAVSGPGPGQMVAPVTGYSLGVRRAEIKPGVREIHLCKDERGKTGLRLRKVDQGLFVQLVQANTPASLVGLRFGDQLLQIDGRDCAGWSSHKAHQVVKKASGDKIVVVVRDRPFQRTVTMHKDSMGHVGFVIKKGKIVSLVKGSSAARNGLLTNHYVCEVDGQNVIGLKDKKIMEILATAGNVVTLTIIPSVIYEHMVKKLPPVLLHHTMDHSIPDA
partner: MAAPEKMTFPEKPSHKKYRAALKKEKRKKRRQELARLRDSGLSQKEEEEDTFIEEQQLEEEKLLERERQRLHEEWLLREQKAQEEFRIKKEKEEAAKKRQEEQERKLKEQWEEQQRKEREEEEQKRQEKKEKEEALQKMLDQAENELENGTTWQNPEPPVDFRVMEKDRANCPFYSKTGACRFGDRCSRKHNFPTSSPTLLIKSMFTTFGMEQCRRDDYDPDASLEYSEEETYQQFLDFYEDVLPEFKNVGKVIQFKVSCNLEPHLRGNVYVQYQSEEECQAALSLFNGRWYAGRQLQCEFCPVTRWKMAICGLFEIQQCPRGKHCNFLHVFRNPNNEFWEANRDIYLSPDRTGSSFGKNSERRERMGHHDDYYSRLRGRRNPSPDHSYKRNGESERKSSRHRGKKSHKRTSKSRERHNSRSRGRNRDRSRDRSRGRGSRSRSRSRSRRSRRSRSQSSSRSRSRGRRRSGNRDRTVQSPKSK

Variants of: B1
Settings: with rpc7l_human POLR3GL

Variant	effect of a mutation on the interaction
E253D	with no effect

Variants of: B2
Settings: with hapr1_human HAPSTR1, Q14CZ0

Variant	effect of a mutation on the interaction
R23H	with no effect

Variants of: B3
Settings: with fhl3_human FHL3, Q13643
Sequence of fhl3_human FHL3, Q13643 (Q13643 whole entry): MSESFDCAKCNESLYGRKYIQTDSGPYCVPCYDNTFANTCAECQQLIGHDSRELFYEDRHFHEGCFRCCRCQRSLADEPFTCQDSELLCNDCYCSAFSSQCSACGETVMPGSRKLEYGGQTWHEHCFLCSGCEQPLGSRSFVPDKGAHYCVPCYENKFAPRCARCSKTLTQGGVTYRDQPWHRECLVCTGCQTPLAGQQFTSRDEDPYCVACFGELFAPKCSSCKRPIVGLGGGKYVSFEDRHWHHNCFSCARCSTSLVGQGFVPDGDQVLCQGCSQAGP

Variant	effect of a mutation on the interaction
I45V	with no effect
P443L	with no effect
D95H	with no effect
P426S	with no effect
M362L	with no effect
D414E	with no effect

Variants of: B4
Settings: with ZRSR2, Q15696

Variant	effect of a mutation on the interaction
V182M	with no effect
G225R	disrupting interaction strength
G242R	disrupting interaction strength
